# Experimental data as given in US20240059789A1 (Janssen / Centocor, published 2024).
# Where a chain is given by its changes, count along the chain named.
# T1: Avi-6xHis-GS-cyno PSMA ECD (PSMW1) (Macaca fascicularis, UniProt Q04609 48-750 (human entry))
# T1 construct: also called PSMW1.009; cy PSMA
# T1 chain: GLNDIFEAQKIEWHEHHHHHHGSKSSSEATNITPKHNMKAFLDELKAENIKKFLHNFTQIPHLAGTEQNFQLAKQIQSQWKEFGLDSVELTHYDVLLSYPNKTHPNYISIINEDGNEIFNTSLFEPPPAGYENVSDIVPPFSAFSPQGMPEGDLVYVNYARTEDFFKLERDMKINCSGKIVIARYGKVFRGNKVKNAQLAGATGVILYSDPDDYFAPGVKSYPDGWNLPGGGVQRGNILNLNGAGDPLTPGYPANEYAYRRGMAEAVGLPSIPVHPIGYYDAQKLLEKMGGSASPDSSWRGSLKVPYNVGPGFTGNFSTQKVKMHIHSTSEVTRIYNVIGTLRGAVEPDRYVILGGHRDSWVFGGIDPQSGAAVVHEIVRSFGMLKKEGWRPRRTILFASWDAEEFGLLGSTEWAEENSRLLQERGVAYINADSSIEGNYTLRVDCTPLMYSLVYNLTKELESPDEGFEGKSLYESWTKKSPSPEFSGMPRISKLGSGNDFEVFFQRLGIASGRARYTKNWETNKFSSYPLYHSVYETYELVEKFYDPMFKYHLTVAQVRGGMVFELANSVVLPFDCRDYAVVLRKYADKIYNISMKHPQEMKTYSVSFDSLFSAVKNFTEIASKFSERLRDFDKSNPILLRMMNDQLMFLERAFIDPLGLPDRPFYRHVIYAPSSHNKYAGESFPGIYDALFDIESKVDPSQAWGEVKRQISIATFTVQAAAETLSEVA
# B1: PSMB891 (antibody, human IgG1, lambda, L234A L235A, V domains shown)
# VH: EVQLVESGGGVVQPGRSLRLSCAASGFTFITYGMHWVRQAPGKGLEWVAVVSFDESNKYYADSVKGRFTISRDNSKNTLYLQMNSLRAEDTAVYYCARALRDGNNWDYFNGMDVWGQGTTVTVSS
# VL: not shown
# B2: PSMB892 (antibody, human IgG1, lambda, L234A L235A, V domains shown)
# VH: B1 VH
# VL: QSVLTQPPSVSGAPGQRVTISCTGSSSNIGADYDVHWYQHLPGTAPKLLIYGNSNRPSGVPDRFSGSKSGTSASLAITGLQAEDETDYYCQSYDSSLSGWVFGGGTKLTVLG
# B3: PSMB895 (antibody, human IgG1, lambda, L234A L235A, V domains shown)
# VH: EVQLVESGGGLVQPGGSLRLSCAASGFTFSSYAMSWVRQAPGKGLEWVSAISGGIGSTYYADSVKGRFTISRDNSKNTLWLQMNSLRAEDTAVYYCAKDGVGATPYYFDYWGQGTLVTVSS
# VL: QSVLTQPPSVSAAPGQKVTISCSGSSSNIGNNYVSWYQQLPGTAPKLLIYDNNKRPSGIPDRFSGSKSGTSATLGITGLQTGDEADYYCGTWDSSLSAYVFGTGTKVTVLG
# B4: PSMB899 (antibody, human IgG1, lambda, L234A L235A, V domains shown)
# VH: B3 VH with A23T, T28I, I55Y, S57A, T58P, S63T, W80Y, Y110D, T115I
# VL: B3 VL with Y50F
# B5: PSMB896 (antibody, human IgG1, lambda, L234A L235A, V domains shown)
# VH: B3 VH
# VL: B3 VL with N31I, Y99V, T103G, V107L
# B6: PSMB897 (antibody, human IgG1, lambda, L234A L235A, V domains shown)
# VH: B3 VH with I55S, W80Y, T91S
# VL: B3 VL
# B7: PSMB898 (antibody, human IgG1, lambda, L234A L235A, V domains shown)
# VH: B3 VH with I55S, W80Y, T91S
# VL: B3 VL with N31I, Y99V, T103G, V107L
# B8: PSMB1069 (bispecific antibody, human IgG1, kappa, L234A L235A)
# heavy: not shown
# light: not shown
# chain: QVQLVESGGGEVQPGRSLRLSCAASGFSFSGYGMHWVRQAPGKGLEWVAVMSYDGSNRFYVDSVRGRFSISRDNSKNTLYLQMNSLRPEDTAVYYCARDTVWGSHPDAFDIWGQGTVVTVSSGGSEGKSSGSGSESKSTGGSQSVLTQPPSVSVAPGQTARITCGGNNSGSKSVHWYQQKPGQAPVLVVYDDSDRPSGIPERFSGSNSGNTATLTISRVEAGDEADYYCQVWDSSSDHGVFGGGTKLTVLEPKSSDKTHTCPPCPAPEAAGGPSVFLFPPKPKDTLMISRTPEVTCVVVSVSHEDPEVKFNWYVDGVEVHNAKTKPREEQYNSTYRVVSVLTVLHQDWLNGKEYKCKVSNKALPAPIEKTISKAKGQPREPQVYVLPPSREEMTKNQVSLLCLVKGFYPSDIAVEWESNGQPENNYLTWPPVLDSDGSFFLYSKLTVDKSRWQQGNVFSCSVMHEALHNHYTQKSLSLSPG
# notes: Null CD3 arm; one PSMA scFv; also called HC1 (ZWA): B23B62-Fab
# B9: PSMB890 (antibody, human IgG1, lambda, L234A L235A, V domains shown)
# VH: EVQLVESGGGLVKPGGSLRLSCAASGFTFSRYNMNWVRQAPGKGLEWVSSINSNSRYIYYADSVKGRFTISRDSAKNSLYLQMNSLRAEDTAVYYCAKTMGDYYYYYGMDVWGQGTTVTVSS
# VL: SSELTQPPSVSGAPGQRVTISCAGSLSNIGAGYDVHWYQQLPGTAPKLLIYGNINRLSGVPERFSGSKSGTSASLAITGLQAEDGADYYCQSYDSSLSSYVFGTGTKVTVLG
# Molecular target: T1, Avi-6xHis-GS-cyno PSMA ECD (PSMW1)
# Assay: SPR Biacore 8K, mAb captured by anti-Fc, antigen in solution
# Protocol: (§1) The association and dissociation were monitored for 3 and 15 minutes, respectively, using a flow rate of 50 μL/min. Raw binding data was referenced by subtracting the analyte binding signals from blanks and analyzed using a 1:1 Langmuir binding model using the Biacore Insight evaluation software to obtain the kinetics, which were used to calculate the binding affinity. The anti-PSMA were captured using an anti-human Fc antibody and the antigens were injected in solution.
row,Binder,Kd
1,B1,≤ 0.21 nM
2,B2,5.67 nM
3,B3,2.83 nM
4,B4,1.47 nM
5,B5,0.658 nM
6,B6,3.93 nM
7,B7,1.19 nM

# Molecular target: T2, Human PSMA ECD (Lys44-Ala750), N-6xHis (PSMW39) (human, UniProt Q04609 44-750)
# T2 construct: also called PSMW39.002; hu PSMA
# Assay: as above
# Protocol: as §1
# T2 sequence (Q04609 other isoform, or with tags, fused parts or gaps): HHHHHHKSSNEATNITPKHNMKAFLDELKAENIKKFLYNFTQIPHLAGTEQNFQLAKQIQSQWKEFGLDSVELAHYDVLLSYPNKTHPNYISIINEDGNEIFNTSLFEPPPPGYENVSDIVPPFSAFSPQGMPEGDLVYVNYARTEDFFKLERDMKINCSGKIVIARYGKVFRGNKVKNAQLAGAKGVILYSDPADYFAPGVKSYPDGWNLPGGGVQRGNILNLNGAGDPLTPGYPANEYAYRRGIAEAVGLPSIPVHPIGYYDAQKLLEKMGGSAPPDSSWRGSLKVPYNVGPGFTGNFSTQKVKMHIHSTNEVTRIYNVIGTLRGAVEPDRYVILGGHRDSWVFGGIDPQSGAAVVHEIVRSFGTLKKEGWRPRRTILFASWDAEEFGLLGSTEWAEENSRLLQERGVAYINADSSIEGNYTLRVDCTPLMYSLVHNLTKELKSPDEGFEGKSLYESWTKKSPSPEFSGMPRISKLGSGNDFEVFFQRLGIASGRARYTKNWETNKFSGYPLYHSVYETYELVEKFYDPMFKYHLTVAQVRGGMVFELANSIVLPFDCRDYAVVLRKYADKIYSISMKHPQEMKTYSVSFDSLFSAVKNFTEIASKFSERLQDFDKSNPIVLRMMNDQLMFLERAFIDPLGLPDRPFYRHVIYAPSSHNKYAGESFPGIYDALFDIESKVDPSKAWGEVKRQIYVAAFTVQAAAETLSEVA
row,Binder,Kd
1,B1,≤ 0.253 nM
2,B2,3.22 nM
3,B3,0.704 nM
4,B4,0.132 nM
5,B5,≤ 0.0876 nM
6,B6,1.28 nM
7,B7,0.333 nM

# Molecular target: Avi-6xHis-GS-mouse PSMA (45-752) (PSMW29) (Mus musculus, UniProt O35409 45-752)
# Assay: as above
# Protocol: as §1
row,Binder,Kd
1,B2,0.404 nM
2,B5,1.36 nM

# Molecular target: T3, Human PSMA on prostate cancer cell lines (C4-2B, 22RV1) (human, UniProt Q04609 1-750)
# T3 construct: Endogenous PSMA of the human cell lines; also called PSMA+ cells; PSMA-expressing cell lines
# Assay: flow cytometry on 22RV1 cells; 22RV1 cells
# T3 sequence (Q04609 whole entry): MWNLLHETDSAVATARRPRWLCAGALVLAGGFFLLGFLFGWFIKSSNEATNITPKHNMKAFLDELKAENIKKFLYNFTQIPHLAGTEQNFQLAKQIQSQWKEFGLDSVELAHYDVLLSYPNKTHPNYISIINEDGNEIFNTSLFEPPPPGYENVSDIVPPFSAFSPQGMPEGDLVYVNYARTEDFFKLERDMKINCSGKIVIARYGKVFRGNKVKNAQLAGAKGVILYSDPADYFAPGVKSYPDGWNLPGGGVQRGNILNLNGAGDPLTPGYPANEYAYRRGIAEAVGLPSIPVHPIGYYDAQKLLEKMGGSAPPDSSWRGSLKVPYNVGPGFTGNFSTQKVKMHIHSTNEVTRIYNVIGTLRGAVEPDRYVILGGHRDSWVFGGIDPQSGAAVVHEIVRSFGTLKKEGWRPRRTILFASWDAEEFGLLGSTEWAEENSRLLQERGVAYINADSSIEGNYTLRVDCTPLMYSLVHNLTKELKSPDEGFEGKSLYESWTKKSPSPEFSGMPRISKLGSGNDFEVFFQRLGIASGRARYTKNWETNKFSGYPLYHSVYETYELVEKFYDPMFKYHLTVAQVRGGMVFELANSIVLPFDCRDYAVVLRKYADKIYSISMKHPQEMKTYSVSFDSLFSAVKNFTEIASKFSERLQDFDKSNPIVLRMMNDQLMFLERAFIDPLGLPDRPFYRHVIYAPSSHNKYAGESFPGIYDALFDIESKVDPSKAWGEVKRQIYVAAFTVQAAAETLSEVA
row,Binder,EC50
1,B2,> 60 nM

# Molecular target: T3, Human PSMA on prostate cancer cell …
# Assay: binding curves on C4-2B cells, 37 C, 1 h incubation, four-parameter fit
# Protocol: Molecule concentrations ranged from 500-0 nM over 12-points at 3-fold dilution. […] Values reported in the Table 32 were generated by fitting the data to a four-parameter function for ligand binding generating values for y-min, y-max, EC50, and Hill. EC90 were calculated using the equation EC90=(90[…](100−90))\hat{ }(1/Hill)*EC50.
row,Binder,fold binding signal (Y-max) over the average of the molecules
1,B8,2 fold

# Molecular target: T3, Human PSMA on prostate cancer cell …
# Assay: flow cytometry on 22RV1 cells
# Protocol: (§2) Selected anti-PSMA antibodies were evaluated for binding to commercial prostate cancer cell lines. C4-2B cells were originally developed at MD Anderson and are derived from LNCaP FGC grown in vivo and metastasize to bone marrow (Thalmann, et al 1994, Cancer Research 54, 2577-81). 22Rv1 cells are a human prostate carcinoma epithelial cell line derived from a xenograft that was serially propagated in mice after castration-induced regression and relapse of the parental, androgen-dependent CWR22 xenograft. 22RV1 and C4-2B cells were plated at 50,000 cells per well in 50 μl of assay medium (RPMI, 10% HI FBS) in V bottom plates. Serial dilutions of antibodies were prepared in assay medium with 50 μl of antibody dilutions added to the plates containing cells. The plates were incubated for 60 min at 37° C. at which time 100 μl of staining buffer (Becton Dickinson Cat #554657) was added to all wells of each plate. The plates were centrifuged at 300×G for 5 minutes and the medium was removed from the wells. 200 μl of staining buffer was added to all wells of each plate. The plates were centrifuged at 300×G for 5 minutes and the medium was removed from the wells. 50 μl of 2 μg/ml AlexaFluor647-labeled goat anti-human Fc was added to all wells of the plates and the plates were incubated for 30 minutes at 4° C. 150 μl of staining buffer was added to all wells of each plate. The plates were centrifuged at 300×G for 5 minutes and the medium was removed from the wells.
row,Binder,EC50
1,B1,0.554 nM
2,B3,1.71 nM
3,B4,1.02 nM
4,B5,1.24 nM
5,B6,2.26 nM
6,B7,2.07 nM
7,B9,1.71 nM

# Molecular target: T3, Human PSMA on prostate cancer cell …
# Assay: flow cytometry on C4-2B cells
# Protocol: as §2
row,Binder,EC50
1,B1,1.99 nM
2,B2,22.4 nM
3,B3,5.09 nM
4,B4,5.58 nM
5,B5,25.8 nM
6,B6,4.76 nM
7,B7,6.53 nM
8,B9,0.941 nM
